Measured values: publication PMC13579936, “Walking the tightrope: Balancing opposing cooperativities in dynein assembly” (The Journal of Biological Chemistry, 2026)

B1: D. melanogaster dynein light chain LC8 (homodimer) (natural protein)
chain: MSDRKAVIKNADMSEEMQQDAVDCATQALEKYNIEKDIAAYIKKEFDKKYNPTWHCIVGRNFGSYVTHETRHFIYFYLGQVAILLFKSG
notes: dynein light chain LC8, D. melanogaster; homodimer; source: purity verified by SDS-PAGE and size-exclusion chromatography
B3: D. melanogaster dynein light chain Tctex1 (homodimer) (natural protein)
chain: MDDSREESQFIVDDVSKTIKEAIETTIGGNAYQHDKVNNWTGQVVENCLTVLTKEQKPYKYIVTAMIMQKNGAGLHTASSCYWNNDTDGSCTVRWENKTMYCIVSVFGLAV
notes: dynein light chain Tctex1, D. melanogaster; homodimer; source: purity verified by SDS-PAGE and size-exclusion chromatography

What was measured:
Test in all cases: ITC; VP-ITC, 25 °C; 50 mM sodium phosphate, 50 mM sodium chloride, 1 mM sodium azide, pH 7.5; 39 isotherms of eight experiment types (IC in cell or in syringe, two- and three-protein titrations, dissociation; 27 from ref. 8, 12 new) fitted globally to a seven-state model by hierarchical Bayesian inference
[1] = target: T1, TII: Tctex1 homodimer with two IC chains bound (D. melanogaster, UniProt Q94524 1-111; Q24246 84-143); details: both partners purified
T1 construct: dynein light chain Tctex1, D. melanogaster; as the chain of m3; cytoplasmic dynein intermediate chain, D. melanogaster, construct ICTL; as the chain of m1; source: formed from the purified proteins m1 and m3 in the ITC samples; copies: 2 + 2
T1 sequence 1: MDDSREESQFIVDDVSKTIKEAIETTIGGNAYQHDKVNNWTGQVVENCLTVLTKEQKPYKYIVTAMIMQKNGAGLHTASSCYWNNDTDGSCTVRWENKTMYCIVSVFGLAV
T1 sequence 2: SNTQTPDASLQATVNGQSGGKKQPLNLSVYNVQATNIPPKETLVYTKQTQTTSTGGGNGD

[2] = target: T2, TI: Tctex1 homodimer with one IC chain bound (half-bound) (D. melanogaster, UniProt Q94524 1-111; Q24246 84-143); details: both partners purified
T2 construct: dynein light chain Tctex1, D. melanogaster; as the chain of m3; cytoplasmic dynein intermediate chain, D. melanogaster, construct ICTL; as the chain of m1; source: formed from the purified proteins m1 and m3 in the ITC samples; copies: 2 + 1
T2 sequence 1: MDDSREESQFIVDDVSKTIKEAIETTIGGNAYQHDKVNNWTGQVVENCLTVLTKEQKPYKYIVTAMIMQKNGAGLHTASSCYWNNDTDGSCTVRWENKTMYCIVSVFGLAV
T2 sequence 2: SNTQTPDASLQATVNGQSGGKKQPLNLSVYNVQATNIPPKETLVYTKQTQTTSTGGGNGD

[3] = target: TILI: one IC chain with a half-bound Tctex1 homodimer and a half-bound LC8 homodimer (D. melanogaster) (UniProt Q94524)
[4] = target: B3; details: both partners purified
[5] = target: B1; details: both partners purified
[6] = target: T3, LI: LC8 homodimer with one IC chain bound (half-bound) (D. melanogaster, UniProt Q24117 1-89; Q24246 84-143); details: both partners purified
T3 construct: dynein light chain LC8, D. melanogaster; as the chain of m2; cytoplasmic dynein intermediate chain, D. melanogaster, construct ICTL; as the chain of m1; source: formed from the purified proteins m1 and m2 in the ITC samples; copies: 2 + 1

[7] = target: T4, LII: LC8 homodimer with two IC chains bound (D. melanogaster, UniProt Q24117 1-89; Q24246 84-143); details: both partners purified
T4 construct: dynein light chain LC8, D. melanogaster; as the chain of m2; cytoplasmic dynein intermediate chain, D. melanogaster, construct ICTL; as the chain of m1; source: formed from the purified proteins m1 and m2 in the ITC samples; copies: 2 + 2

Binder: B1
- dH [1]: -25.8 kcal/mol
- dH [2]: -12.7 kcal/mol

B2: D. melanogaster dynein intermediate chain ICTL (domain or fragment, UniProt Q24246 84-143, looked up)
chain: SNTQTPDASLQATVNGQSGGKKQPLNLSVYNVQATNIPPKETLVYTKQTQTTSTGGGNGD
notes: cytoplasmic dynein intermediate chain (IC), D. melanogaster; source: purity verified by SDS-PAGE and size-exclusion chromatography
- dH [3]: -18.1 kcal/mol
- dH, first IC on the Tctex1 dimer (state TI) [4]: -6.76 kcal/mol
- dH, second IC on the Tctex1 dimer (TI to TII) [4]: -4.97 kcal/mol
- dH, first IC on the LC8 dimer (state LI) [5]: -14.8 kcal/mol
- dH, second IC on the LC8 dimer (LI to LII) [5]: -15.1 kcal/mol

Binder: B3
- dH [6]: -4.7 kcal/mol
- dH [7]: -7.72 kcal/mol
